T1: CMG2 38-218 (Homo sapiens, UniProt P58335)
T1 chain: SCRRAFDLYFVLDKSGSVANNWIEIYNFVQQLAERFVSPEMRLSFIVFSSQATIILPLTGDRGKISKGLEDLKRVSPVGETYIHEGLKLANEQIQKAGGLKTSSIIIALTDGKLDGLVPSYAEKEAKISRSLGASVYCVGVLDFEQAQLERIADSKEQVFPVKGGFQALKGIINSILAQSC

Square brackets hold non-standard residues; d marks the D form. Ends that are not written are not given here. Tyr(3-NO2) = N[C@@H](Cc1ccc(O)c([N+](=O)[O-])c1)C(=O)O; Phe(4-NO2) = N[C@@H](Cc1ccc([N+](=O)[O-])cc1)C(=O)O; Tyr(3,5-Br2) = N[C@@H](Cc1cc(Br)c(O)c(Br)c1)C(=O)O; Phe(4-CN) = N#Cc1ccc(C[C@H](N)C(=O)O)cc1; Phe(4-Cl) = N[C@@H](Cc1ccc(Cl)cc1)C(=O)O; Phe(4-F) = N[C@@H](Cc1ccc(F)cc1)C(=O)O; hPhe = N[C@@H](CCc1ccccc1)C(=O)O; Phg = N[C@H](C(=O)O)c1ccccc1

In one assay the target is T1, CMG2 38-218. As to the kind of experiment: microscale thermophoresis.
Molecule CLR[Tyr(3,5-Br2)]T [CLR(3,5-dibromo-Y)T] registered a Kd of 60 µM.

Molecule CLR[Tyr(3-NO2)]T [CLR(3-nitro-Y)T] had a Kd of 112 µM.

Regarding CLR[Phe(4-F)]T [CLR(4-fluoro-F)T], the Kd worked out at 49.9 µM.

CLR[Phe(4-CN)]T [CLR(4-cyano-F)T] came in with an equilibrium dissociation constant (Kd) of 61.4 µM.

Turning to CLR[dF]T [CLR(D-Phe)T], binding was put at a Kd of 31 µM.

In the case of CLR[hPhe]T [CLR(homophenylalanine)T], binding was characterised by a dissociation constant (Kd) of 74 µM.

Molecule CLR[Phe(4-Cl)]T [CLR(4-Cl-F)T] returned a Kd of 14 µM.

In turn, CLR[Phg]T [CLR(phenylglycine)T] yielded a Kd of 59.6 µM.

Molecule CLR[Phe(4-NO2)]T [CLR(4-nitro-F)T] gave a Kd of 36.2 µM.

A further assay has as its target T1, CMG2 38-218. As to the kind of experiment: sandwich ELISA (competition with His6-PA 488-735).
Molecule CLRPT displayed a half-inhibitory concentration (IC50) of 153 µM.

Values taken from article PMC5465072 (2017).
